Test results from article PMC11098114 (Proceedings of the National Academy of Sciences of the …, 2024).

Target: the molecule itself
Test: SEC

Protein | binding result
3×Ala-MxEnc (natural protein, Myxococcus xanthus) MPDFLGHAENPLREEEWARLNETVIQVARRSLVGRRILDIYGPLGAGVQTVPYDEFQGVSPGAVDIVGEQETAMVFTDARKFKTIPIIYKDFLLHWRDIEAARTHNMPLDVSAAAGAAALCAQQEDELIFYGDARLGYEGLMTANGRLTVPLGDWTSPGGGFQAIVEATRKLNEQGHFGPYAVVLSPRLYSQLHRIYEAAAVLEIETIRQLASDGVYQSNRLRGESGVVVSTGRENMDLAVSMDMVAAYLGASRMNHPFRVLEALLLRIKHPDAICTLEGAGATERR | binds
3×Asp-MxEnc (natural protein, Myxococcus xanthus) MPDFLGHAENPLREEEWARLNETVIQVARRSLVGRRILDIYGPLGAGVQTVPYDEFQGVSPGAVDIVGEQETAMVFTDARKFKTIPIIYKDFLLHWRDIEAARTHNMPLDVSAAAGAAALCAQQEDELIFYGDARLGYEGLMTANGRLTVPLGDWTSPGGGFQAIVEATRKLNEQGHFGPYAVVLSPRLYSQLHRIYEDDDVLEIETIRQLASDGVYQSNRLRGESGVVVSTGRENMDLAVSMDMVAAYLGASRMNHPFRVLEALLLRIKHPDAICTLEGAGATERR | binds
